From patent publication US7657385B2

Molecular target: CD81-LEL (large extracellular loop of human CD81, amino acids 113-201) (human)
Experiment: X-ray crystal structure; dimer in the asymmetric unit

Work on “CD81-LEL (large extracellular loop of human CD81, amino acids 113-201) (receptor)” yielded a subunit interface of 986 Å^2.
